# Test: soluble on expression in E. coli; label from the status in PepcDB or PDB records
row,Sequence,soluble on expression in E. coli
1,YENIQNIEDFYRFINAHALAVVHIMRDNCTVCHAVLPQIQDLLKDYPKAQLGVINQSNVEEIAGELSIFTVPVDLIFLKGKEMHRQARFIDMQSFEKQLYMMQNAID,soluble
2,MSLTLTLTGTGGAQGVPAWGCECAACARARRSPQYRRQPCSGVVKFNDAITLIDAGLHDLADRWSPGSFQQFLLTHYHMDHVQGLFPLRWGVGDPIPVYGPPDEQGCDDLFKHPGLLDFSHTVEPFVVFDLQGLQVTPLPLNHSKLTFGYLLETAHSRVAWLSDTAGLPEKTLKFLRNNQPQVMVMDCSHPPRADAPRNHCDLNTVLALNQVIRSPRVILTHISHQFDAWLMENALPSGFEVGFDGMEIGVALEHHHHHH,soluble
3,MGSDKIHHHHHHMKILYIITGLPTGGAEMMLYKLLSQINQERFEPIVVSLMDRGTLGDRIEALGIPVHTIGMNRGGIPMPVDVWRLVHLVDRLQPDIIQGWMYHGNLAAQFASFLNGNKIPIVWSIHYSIDSLESDKKMTVAIIKFSAYISRLPKQVLFVSQNSKLQHEALGYSSKNSCIIPNGFDTISFSPSLTERVDVRSELSLPHESLLIGLICRYHPMKDHANFIQAAALFLKEHPNINFLMIGQGVDRDNPTLNKLIKELGIGDRISLLGERKDIPRLITSLDIFTSASAYGEAFPLVIGEAMSCGIPCVVTDVGDSGWIVGNTGKVIPPRNPQMLADAWKELIALGEEGRNILGKAARARITEDFALNSVVAKYELVYEKILSNMST,not soluble
4,SLSLRPSPRLLCTATKQKNSGQNLEEDMGQSEQKADPPATEKTLLEEKVKLEEQLKETVEKYKRALADTENLRQRSQKLVEEAKLYGIQAFCKDLLEVADVLEKATQCVPKEEIKDDNPHLKNLYEGLVMTEVQIQKVFTKHGLLKLNPVGAKFDPYEHEALFHTPVEGKEPGTVALVSKVGYKLHGRTLRPALVGVVKEA,soluble
5,AHHHHHHGSKKFPAYLASWEDIENWAKAGAWKVLESGWMPDVIVGLARGGWIAARLYCDYLGVKDLVSIKVEHWGVTATPDGRARLKYGAQYDFEGKKVLIVDDITDTGESMSLAYEYMKSRNPAEIRTATLLNIKGSKFVPDYYAKDIDWVWVVFPWNFVEDMINLTNNLFEEKDKLTTDEIISLFKELHGIEVPREKLEEALRMAEKRKIFKFENGFWTKV,soluble
6,MRLPHQLTGSRFFSFSDEGEFLKSVSAVVDEEEFVRIGSLVQAGLMPITSKEVLATMLGVNPGIIWSLENKPERYYRRFKIPKGKGEREIVAPKVGLKVIQKWFSVQLQDCARIDDHVFGFVPGRSHIDAASVHTNANWVYSIDLTNFFPSTPINWVASSLINIGYDADSADRISKLCCYRGALAQGSPASPVLSNISMRGIDAALGALAAEMDVRVTRYADDITFSAAGEFPQVLPERLESLFSQTPWKISQEKTYFSEAPVRLKVHGLVVNGNTVKLTKGYRNKLRAYRHVLQTNRCRQEDLARLSGHVRYASQVSSRDDLEHHHHHH,not soluble
7,MKRLTAKEEEIMGFFWEKGPLFVKEILAFYDEPRPHFNTLSTIVRGLEEKGFLAHHTYGNTYQYYAVVSESDFSKRTLKSVISKYFNNSYLSAVSSLVKEEDISLDDLKKLIQEVEQKNEE,soluble
8,VHADLAATTSREDFRLLAAEHRVVPVTRKVLADSETPLSAYRKLAANRPGTFLLESAENGRSWSRWSFIGAGAPTALTVREGQAVWLGAVPKDAPTGGDPLRALQVTLELLATADRQSEPGLPPLSGGMVGFFAYDMVRRLERLPERAVDDLCLPDMLLLLATDVAAVDHHEGTITLIANAVNWNGTDERVDWAYDDAVARLDVMTAALGQPLPSTVATFSRPEPRHRAQRTVEEYGAIVEYLVDQIAAGEAFQVVPSQRFEMDTDVDPIDVYRILRVTNPSPYMYLLQVPNSDGAVDFSIVGSSPEALVTVHEGWATTHPIAGTRWRGRTDDEDVLLEKELLADDKERAEHLMLVDLGRNDLGRVCTPGTVRVEDYSHIERYSHVMHLVSTVTGKLGEGRTALDAVTACFPAGTLSGAPKVRAMELIEEVEKTRRGLYGGVVGYLDFAGNADFAIAIRTALMRNGTAYVQAGGGVVADSNGSYEYNEARNKARAVLNAIAAAETLAAPGANRSGC,soluble
